Data from patent US20210054078A1 (PHARMABCINE, published 2021).
Like-named read-outs stand apart in the source and are kept apart here.

Legend:
[1] = target: T1, human PD-L1 (soluble protein of the kinetic measurements) (human, UniProt Q9NZQ7 19-238, limits assumed); assay: BLI (Octet), antibody fixed on biosensor, PD-L1 in solution
T1 construct: kept apart from the His-tag protein of the ELISA; also called hPD-L1
Protocol: (§1) The binding ability of the selected anti-PD-L1 antibody to human or mouse PD-L1 was measured using the Octet system (Fortebio Inc. US). For this purpose, an anti-PD-L1 antibody was fixed on a biosensor, and binding kinetics at each concentration of human or mouse PD-L1 were measured to calculate a binding rate constant (kₐ), a dissociation rate constant (kdis) and a binding constant (KD) (Table 3).

[2] = target: T2, mouse PD-L1 (soluble protein of the kinetic measurements) (mouse, UniProt Q9EP73 19-238, limits assumed); assay: as above
T2 construct: kept apart from the His-tag protein of the ELISA; also called mPD-L1
T2 sequence (Q9EP73 19-238 limits assumed): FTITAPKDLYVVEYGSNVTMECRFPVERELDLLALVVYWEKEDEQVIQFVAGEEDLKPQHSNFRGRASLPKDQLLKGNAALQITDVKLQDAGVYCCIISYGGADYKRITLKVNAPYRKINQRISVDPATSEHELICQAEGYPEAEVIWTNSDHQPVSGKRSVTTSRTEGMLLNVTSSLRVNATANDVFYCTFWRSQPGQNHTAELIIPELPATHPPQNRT
Protocol: as §1

[3] = target: T1, human PD-L1 (soluble protein of the …); assay: as above; remark: listed apart in the source
Protocol: as §1
(§2) The cell-binding ability of the optimized anti-PD-L1 antibody was measured through flow cytometry. The experiment was performed in the same manner as in Example 6. […] In order to evaluate binding force, binding kinetics were analyzed using Octet and the binding constant was calculated (Table 7).

[4] = target: T2, mouse PD-L1 (soluble protein of the …); assay: as above; remark: listed apart in the source
Protocol: as §1, §2

[5] = target: T3, human PD-L1 on hPD-L1/CHO-K1 overexpressing cells (human, UniProt Q9NZQ7 19-290); assay: flow cytometry on hPD-L1/CHO-K1 cells (sheet label hPD-1/CHO-K1)
T3 construct: whole, on cells; also called human PD-L1-expressing cells
T3 sequence (Q9NZQ7 19-290): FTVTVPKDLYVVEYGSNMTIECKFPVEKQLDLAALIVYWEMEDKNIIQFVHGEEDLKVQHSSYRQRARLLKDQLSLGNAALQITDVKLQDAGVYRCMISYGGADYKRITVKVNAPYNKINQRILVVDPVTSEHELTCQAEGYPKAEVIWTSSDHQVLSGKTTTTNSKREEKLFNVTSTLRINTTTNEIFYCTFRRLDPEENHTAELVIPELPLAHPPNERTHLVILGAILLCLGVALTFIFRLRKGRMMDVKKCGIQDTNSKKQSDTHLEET
Protocol: (§3) For flow cytometry, overexpressing cell lines (hPD-L1/CHO-K1, mPD-L1/CHO-K1), established by introducing human and. mouse PD-L1 genes into CHO-K1 cells, were used. Each cell was maintained and cultured, washed with PBS, suspended in 5 mM EDTA and then recovered through centrifugation. A cell suspension (5×10⁶ cells/ml) was prepared using a FACS-exclusive buffer (containing 2% FBS and PBS 0.05% sodium azide), and was seeded at 100 μl/tube. […] of a test antibody was added at 100 μl to each test tube and then allowed to stand at 4° C. for 30 minutes to induce antibody-cell binding. […] After washing with 2 ml of FACS buffer, 200 μl of FACS buffer was added to suspend the cells. As a positive control group, fluorescence labeling was conducted using FITC-conjugated anti-human PD-L1 antibody (#558065, BD Biosciences) and PE-conjugated anti-mouse […] (#558091, BD Biosciences).
as §2

[6] = target: T4, mouse PD-L1 on mPD-L1/CHO-K1 overexpressing cells (mouse, UniProt Q9EP73 19-290); assay: flow cytometry on mPD-L1/CHO-K1 cells (sheet label mPD-1/CHO-K1)
T4 construct: whole, on cells; also called mouse PD-L1-expressing cells
T4 sequence (Q9EP73 19-290): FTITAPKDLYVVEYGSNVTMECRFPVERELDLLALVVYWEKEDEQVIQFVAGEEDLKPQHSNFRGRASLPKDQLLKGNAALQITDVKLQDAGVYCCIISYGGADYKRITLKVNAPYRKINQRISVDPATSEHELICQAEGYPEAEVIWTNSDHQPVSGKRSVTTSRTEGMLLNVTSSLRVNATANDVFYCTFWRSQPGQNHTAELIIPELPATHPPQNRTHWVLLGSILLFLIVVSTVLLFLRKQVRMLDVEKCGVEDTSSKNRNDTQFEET
Protocol: as §3, §2

[7] = target: T5, Mouse PD-L1-HisTag (#50010-M08H, Sino Biological Inc.) (mouse, UniProt Q9EP73 19-238); assay: ELISA on coated His-tag mouse PD-L1, OD450-630
T5 construct: Bought protein coated on the ELISA plate; also called mPD-L1; His-tag mouse PD-L1 protein; not shown: His tag
T5 sequence (Q9EP73 19-238 limits assumed, stated change not applied): as the sequence (Q9EP73 19-238 limits assumed) above

[8] = target: T4, mouse PD-L1 on mPD-L1/CHO-K1 …; assay: flow cytometry, purified IgG on mPD-L1/CHO-K1 cells, PE anti-human IgG-Fc
Protocol: as §3

T1 sequence (Q9NZQ7 19-238 limits assumed): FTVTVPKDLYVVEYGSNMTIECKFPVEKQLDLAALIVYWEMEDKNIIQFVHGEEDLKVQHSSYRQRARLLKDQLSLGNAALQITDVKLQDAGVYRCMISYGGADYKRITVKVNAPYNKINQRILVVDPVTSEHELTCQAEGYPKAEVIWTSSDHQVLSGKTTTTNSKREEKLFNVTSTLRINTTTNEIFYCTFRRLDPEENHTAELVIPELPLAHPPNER

| Binder | koff [3] | kon [3] | Kd [4] | koff [4] | kon [4] | % Gated in M1 [5] | Geo Mean in M1 [5] | Geo Mean, all events [5] | Mean in M1 [5] | Mean, all events [5] | % Gated in M1 [6] | Geo Mean in M1 [6] | Geo Mean, all events [6] | Mean in M1 [6] | Mean, all events [6] | Kd [3] | also measured |
| --- | --- | --- | --- | --- | --- | --- | --- | --- | --- | --- | --- | --- | --- | --- | --- | --- | --- |
| ME4 anti-PD-L1 antibody (IgG form) (antibody, V domains shown, Converted to IgG with the vectors pIgGHD-6A6Hvy and pIgGLD-6A6Lgt; Expressed in Expi293F cells) VH: QVQLVESGAEVKKPGSSVKVSCKASGGTFNNYAVSWVRQAPGQGLEWMGRIIPILGIANYAQTFQGRVTITADKSTTTAYMELSSLRSEDTAVYYCARSYSGYAEGAFDIWGQGTMVTVSS VL: QFVLTQPPSVSGAPGQRVTISCTGSSSNIGAGYDVHWYQQLPGTAPKVLIYGNSDRPSGVPDRFSGSKSGTSASLAITGLQGEDKATYYCQSYDSRLSGPVFGTGTKVTVLG | 0.000324 s⁻¹ | 188000 M⁻¹ s⁻¹ | 37.4 nM | 0.00211 s⁻¹ | 56300 M⁻¹ s⁻¹ | 83.2% | 34.4 | 27.8 | 38.3 | 33.6 | 28.8% | 20 | 10.4 | 20.6 | 12.3 | – | Kd [1]: 1.72 nM; koff [1]: 0.000324 s⁻¹; kon [1]: 188000 M⁻¹ s⁻¹; Kd [2]: 37.4 nM; koff [2]: 0.00211 s⁻¹; kon [2]: 56300 M⁻¹ s⁻¹ |
| ME4.B12 anti-PD-L1 antibody (IgG form) (antibody, V domains shown) VH: QVQLVESGAEVKKPGSSVKVSCKASGGTFNNYAVSWVRQAPGQGLEWMGRIIPILGIANYAQTFQGRVTITADKSTTTAYMELSSLRSEDTAVYYCARSSFGYSVGAFDIWGQGTMVTVSS VL: QFVLTQPPSVSGAPGQRVTISCTGSSSNIGAGYDVHWYQQLPGTAPKVLIYGNSDRPSGVPDRFSGSKSGTSASLAITGLQGEDKATYYCQSYDSRLSGPVFGTGTKVTVLG | 3.19e-06 s⁻¹ | 164000 M⁻¹ s⁻¹ | 1.22 nM | 0.000379 s⁻¹ | 310000 M⁻¹ s⁻¹ | 81.6% | 29.2 | 22.5 | 33.8 | 28.9 | 27.2% | 16.1 | 7.13 | 16.6 | 9.1 | 0.0194 nM | – |
| ME4.A11 anti-PD-L1 antibody (IgG form) (antibody, V domains shown) VH: QVQLVESGAEVKKPGSSVKVSCKASGGTFNNYAVSWVRQAPGQGLEWMGRIIPILGIANYAQTFQGRVTITADKSTTTAYMELSSLRSEDTAVYYCARSRGGYAHGAFDIWGQGTMVTVSS VL: QFVLTQPPSVSGAPGQRVTISCTGSSSNIGAGYDVHWYQQLPGTAPKVLIYGNSDRPSGVPDRFSGSKSGTSASLAITGLQGEDKATYYCQSYDSRLSGPVFGTGTKVTVLG | 0.000109 s⁻¹ | 118000 M⁻¹ s⁻¹ | 4.86 nM | 0.000626 s⁻¹ | 129000 M⁻¹ s⁻¹ | 52.6% | 19.4 | 12.1 | 21 | 14.7 | 9.44% | 14.2 | 5.55 | 14.5 | 6.63 | 0.918 nM | – |
| ME4.A2 anti-PD-L1 antibody (IgG form) (antibody, V domains shown) VH: QVQLVESGAEVKKPGSSVKVSCKASGGTFNNYAVSWVRQAPGQGLEWMGRIIPILGIANYAQTFQGRVTITADKSTTTAYMELSSLRSEDTAVYYCARSSRGYAHGAFDIWGQGTMVTVSS VL: QFVLTQPPSVSGAPGQRVTISCTGSSSNIGAGYDVHWYQQLPGTAPKVLIYGNSDRPSGVPDRFSGSKSGTSASLAITGLQGEDKATYYCQSYDSRLSGPVFGTGTKVTVLG | 1.02e-05 s⁻¹ | 174000 M⁻¹ s⁻¹ | 3.01 nM | 0.000986 s⁻¹ | 328000 M⁻¹ s⁻¹ | 72.4% | 29.1 | 20.7 | 33 | 26.4 | 51% | 19.1 | 10.8 | 20.3 | 13.8 | 0.0586 nM | – |
| ME4.B10 anti-PD-L1 antibody (IgG form) (antibody, V domains shown) VH: QVQLVESGAEVKKPGSSVKVSCKASGGTFNNYAVSWVRQAPGQGLEWMGRIIPILGIANYAQTFQGRVTITADKSTTTAYMELSSLRSEDTAVYYCARSARGYAHGAFDIWGQGTMVTVSS VL: QFVLTQPPSVSGAPGQRVTISCTGSSSNIGAGYDVHWYQQLPGTAPKVLIYGNSDRPSGVPDRFSGSKSGTSASLAITGLQGEDKATYYCQSYDSRLSGPVFGTGTKVTVLG | ~2.42e-05 s⁻¹ | 145000 M⁻¹ s⁻¹ | 1.62 nM | 0.000422 s⁻¹ | 260000 M⁻¹ s⁻¹ | 50.3% | 19.4 | 11.5 | 21 | 14.2 | 18.1% | 15 | 6.41 | 15.4 | 7.85 | 0.167 nM | – |
| ME4.A12 anti-PD-L1 antibody (IgG form) (antibody, V domains shown) VH: QVQLVESGAEVKKPGSSVKVSCKASGGTFNNYAVSWVRQAPGQGLEWMGRIIPILGIANYAQTFQGRVTITADKSTTTAYMELSSLRSEDTAVYYCARSHWGYAHGAFDIWGQGTMVTVSS VL: QFVLTQPPSVSGAPGQRVTISCTGSSSNIGAGYDVHWYQQLPGTAPKVLIYGNSDRPSGVPDRFSGSKSGTSASLAITGLQGEDKATYYCQSYDSRLSGPVFGTGTKVTVLG | 2.2e-05 s⁻¹ | 165000 M⁻¹ s⁻¹ | 2.65 nM | 0.000817 s⁻¹ | 308000 M⁻¹ s⁻¹ | 44.6% | 18.4 | 10.6 | 19.7 | 12.9 | 7.31% | 14.2 | 5.39 | 14.4 | 6.38 | 0.134 nM | – |
| 1G1 anti-PD-L1 antibody (IgG form) (antibody, V domains shown, Converted to IgG with the vectors pIgGHD-6A6Hvy and pIgGLD-6A6Lgt; Expressed in Expi293F cells; also called IG1) VH: QVQLVESGGGLVQPGRSLRLSCAASGFTFDDYAMHWVRQAPGKGLEWVSGISWNSGSIGYADSVKGRFTISRDNAKNSLYLQMNSLRAEDTAVYYCAKPRDISSWLGMDVWGQGTTVTVSS VL: DIQMTQSPSSVSASVGDRVTITCRASQDISSWLAWYQQKPGKAPKLLIYAASSLQSGVPSRFSGSGSGTDFTLTISSLQPEDSATYYCQQTNNFPYTFGQGTKLEIKR | – | – | – | – | – | – | – | – | – | – | – | – | – | – | – | – | binding result [7]: no binding; Kd [1]: 0.629 nM; koff [1]: 0.000146 s⁻¹; kon [1]: 232000 M⁻¹ s⁻¹; binding result [8]: no binding |
